Earlier results on 1 substance are cited in PMC10349181.

For orientation: Kd means the equilibrium constant for the complex coming apart.

For this data set, the target named is Amyloid beta (Homo sapiens) (UniProt P05067).
Amyloid beta (Homo sapiens), sequence (P05067 672-711): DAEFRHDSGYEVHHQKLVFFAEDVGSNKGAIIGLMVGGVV

VEGF-A, sequence (P15692 whole entry): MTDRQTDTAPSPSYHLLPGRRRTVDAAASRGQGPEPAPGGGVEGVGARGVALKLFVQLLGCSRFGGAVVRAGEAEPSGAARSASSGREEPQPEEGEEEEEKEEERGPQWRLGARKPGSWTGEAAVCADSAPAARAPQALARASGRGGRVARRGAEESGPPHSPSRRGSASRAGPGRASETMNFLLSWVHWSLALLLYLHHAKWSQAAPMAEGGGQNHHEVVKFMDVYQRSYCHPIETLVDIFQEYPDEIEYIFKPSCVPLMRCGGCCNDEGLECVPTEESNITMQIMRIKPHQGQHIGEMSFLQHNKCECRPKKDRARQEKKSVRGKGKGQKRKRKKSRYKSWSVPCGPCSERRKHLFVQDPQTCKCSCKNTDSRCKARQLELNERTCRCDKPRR

As to VEGF-A (from UniProt P15692), the Kd is 0.05 nM.
